Laboratory results from the supplement of paper PMC9170038.

Tested on: MS2 coat protein
Assay: apparent KD of MS2 coat protein; higher = weaker reporter binding
Details: Eterna round: R107
How it was run: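 Binding of SNAP-549-labelled MS2 coat protein was measured on designed RNA switches transcribed on-chip from Illumina sequencing clusters. The protein rose in twofold steps from 0.7 or 1.5 nM to 3 µM, with 0.8–1.5 h per step early on and 10–20 min per step later, in 100 mM Tris-HCl pH 7.5, 80 mM KCl, 4 mM MgCl2, without or with constant ligand. Each design's apparent KD is the median of fits to its normalised cluster binding curves.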

[1] = input ligand: theophylline 20 uM
[2] = input ligand: tryptophan 2.4 mM
[3] = input ligand: theophylline 2 mM

Sequence	apparent KD of MS2 coat protein (input ligand: arginine 13.2 mM) [nM]	apparent KD of MS2 coat protein [1] [nM]	apparent KD of MS2 coat protein [2] [nM]	apparent KD of MS2 coat protein [3] [nM]	apparent KD of MS2 coat protein (input ligand: none) [nM]
ACAUGAGGAUCACCCAUGUCUGCCACUGAUACCAGCGGAAGAAAACGCCCUUGGCAGCAGAACAUGAGGAUCACCCAUGUAGGCU [Same State Theophylline A GF29]	39.6	166	140	–	–
UUUGAGAUAACAGAUACCAGCGUGUUAUAAAACAUGAGGAUCACCCAUGUAGUGAUCAAGCGCCCUUGGCAGCUGGUAUUUUAGG [7.G]	70.3	186	146	–	–
GUUGUAUACUCGGCCGCCACUGAGAGAGUCAUGUAAACAUGAGGAUCACCCAUGUAAUAUAUAUACAGGACCGGGAGUAUGGUAA [4.F]	12.1	16.2	–	15.4	–
AUUAAUAGUUGUGAUACCAGACUUACAUGAGGAUCACCCAUGUUACUUAAGUGUUUUGAUGUCCCUUGGCAGCACUGUUUAGUUA [JR_SSTheophyB_Sub016]	24.3	33	25	–	–
CUAUAAGUAGCGGCCGCCACUUACUCAUGAGGUAACAACAUGAGGAUCACCCAUGUUUGAGGAUCAAGGACCGGGCUAUUUAUAG [AstrosSSTryB#9]	24.7	32.6	17.6	31.5	28.7
CCUGCUACGGGAAACCGUAGCAGGAAUGAUACCAGUAGGAAAGACUACCCUUGGCAGCAUGGGUAACAUGAGGAUCACCCAUGUU [SSThA NP+V+V2 #6 Same Structure]	70.9	124	66	87.9	132
UUAGAUAUGACAGAUACCAGCGUGUUAUAAAACAUGAGGAUCACCCAUGUAGUGAUCGAGCGCCCUUGGCAGCUGGUGUGUUUGG [7.R]	69.7	175	148	–	–
UCACUCUGGGUGAAUUCCGGAGAUGUGGAAGGAGCGGACGAAAGUCCAGGUAGGUCGCCAUCGGACAUGAGGAUCACCCAUGUAC [Same State - Arginine A (Freestyle 23)]	71.8	98	68.5	131	89
UAGUAACAUGAGGAUCACCCAUGUCCGGAUACCAGACAUAUACCAGUCCCUUGGCAGCCGCCAGUUAAAAUCUAACACAAAAGUU [theeternabot_sameState_MS2_Theo_A_34]	38.8	55	34.4	–	–
UUGACAUGAGGAUCACCCAUGUUAGCGGAAGGAGCGCGGUAGUACGCAGGUAGGUCGCCGAGAACAGUGAUAGUUGUUCUCAUGU [X-ArgiA-ms2@4-1]	27.6	85	46.9	91.2	76.6
CGGGUUCGGGCGGCCGCCACUAUGAUUAGGUGUGGGUGUGUUGUGUUACAUGAGGAUCACCCAUGUAGGACCGGGUUUGGGCUUG [Sturgeon]	33.4	84.5	57.4	28.3	52.6
AUGCAUGUCAGAAGGAGCGUCUUUAACAUGAGGAUCACCCAUGUAACAUUGAAUUCGAUGAGACAGGUAGGUCGCUGAAUAGUAA [JR_SSArginiB_Sub020]	21.1	72.3	42.9	62.5	82.8
UGUAACAUGAGGAUCACCCAUGUAAGUGAUACCAGAUAAGUAGUAGUCCCUUGGCAGCAUAUUGGGAAAGUGUAUAGUCUAUACG [Same State - Theophylline A (Freestyle 5)]	50	75.3	46.4	–	–
CAGCCUGGUUGGUAAAUCCCUCAUCGUGAUACCAGUCGAGUGAUCGACCCUUGGCAGCACAUGAGGAUCACCCAUGUGCUCGUAU [Diorqu]	18.6	31.1	17.9	–	–
GGCCUGUGGAGCGAUACCAGCUUGAGUGUACUGGCCAGGUACAUGAGGAUCACCCAUGUAAGCCCUUGGCAGCGCUCCAGAGGCC [#1 Exclusion - Theophylline B Attempt #18 (HarryS)]	9.41	16.4	13.2	56.7	12.1
AUGCACAUCAGAAGGAGCGUCUUGGCCAAUCUAGGCCAACAUGAGGAUCACCCAUGUGCAGGACAGGUAGGUCGCUGAUGUGUAG [Arg B SS t8]	11.6	17.8	12.4	14.5	12.3
GGAUGCGGCACGGCCGCCACUGCGGUGGUGUGACAUGAGGAUCACCCAUGUUGUCAUGCGGCCCUUAGGACCGGGUGGCGUUUCC [#1 Exclusion - Tryptophan B Attempt #20 (HarryS)]	38	73.6	62.9	66.7	56.7
ACAUGAGGAUCACCCAUGUUAAGCACAGAAGGAGCGUGAAGAAACACAGGUAGGUCGCUGUACUUAUCGAGCGUUAGCUCGAUAC [JR_Nu_SSArginiA_Sub029]	13.7	29	20.9	26.4	23.1

Sequence	apparent KD of MS2 coat protein (input ligand: arginine 13.2 mM) [nM]	apparent KD of MS2 coat protein [1] [nM]	apparent KD of MS2 coat protein [2] [nM]	apparent KD of MS2 coat protein [3] [nM]	apparent KD of MS2 coat protein (input ligand: none) [nM]
AUGUCGUUGAAUAUAGCGGCUUGGUGUGAUACCAGAAUGAUCUAAUUCCCUUGGCAGCAUUACAUGAGGAUCACCCAUGUUCAGG [SSTheo A #20]	22	28	26.3	–	–
AAUUCCUAACAUGAGGAUCACCCAUGUGAAGGAGCGCCGAAUAAGGCAGGUAGGUCGCACAUGGAACAGCUGCGAAAGAGGAAAA [XArg-A 5 V1&2]	11.9	15.3	12.7	12.5	13.2
AACGUAUACAGAAGGAGCGUGAAUUAUAUUACUCAUUGUUAUACAUGAGGAUCACCCAUGUCACAGGUAGGUCGCUGUAUUCGUA [JR_ExcArginiB_Sub018]	76.9	126	110	162	131
UUUCAAGUAUCGGCCGCCACUCUAGUUGGUUGUUCAAUCCGAUUACAUGAGGAUCACCCAUGUCUGAGGACCGGGAUAAAGUAAU [theeternabot_sameState_MS2_Trp_B_25]	20.4	32.5	–	31.2	–
AGACAUGAGGAUCACCCAUGUAGUACGGAUACCAGAUCCAGAUUUAUCCCUUGGCAGCUGUGGUACAGCGUUGCAACGCUCCUAG [Exclusion - Theophylline A (Freestyle 15)]	13.6	22.1	15.4	–	–
ACCUGUACGAAAAGUGCAGGACACGGAAUACGAGGACCGGUACGGCCGCCACUCGGAAACCUGAGGAUCACCCUGGUAAACCGUG [TrypAS 12 #AlternativeMS2 #Zipper #StaticStem]	26.9	33.5	23.3	31.1	25.2
UCUUUCUAUAGUGAUACCAGACGUACAUGAGGAUCACCCAUGUUACAUUCUUGGUUAAAAGUCCCUUGGCAGCACGAUUUGUUCG [JR_Nu_ExcTheophyB_Sub027]	9.7	10.9	10.3	–	–
GUGGAGACACGAGAUACCAGUCUCUAUAACAUGAGGAUCACCCAUGUAAUGCUCCUCAGGGACCCUUGGCAGCUCAGUAUGAUGA [Exclusion - Theophylline B]	34.8	54.5	35.7	–	–
CUUGACAUGAGGAUCACCCAUGUUGGUAAACGAGGACCGGUACGGCCGCCACUCGGUUACGUGUAGUACCGGUAAGAUCCAGGGU [Default title]	24.8	42.6	–	39	–
UUCAGCUAGUCGGCCGCCACUACAUGAGGAUCACCCAUGUCGGUCCUCACUGCUUCGGCAGUGUGUAGGACCGGGACUAGCUGAG	62	93.6	–	91.3	–
AGUCUUGAACGAAGGAGCGACGUACAUGAGGAUCACCCAUGUGGGAGCGAAAGCUCCCAACGUCAGGUAGGUCGCGUUCGAGACA [SS-ArgB29]	16.9	24.7	18.5	20.4	17.7
GACUCUGUCGGAAGGAGCGCAGAGCCGGUCUUCUACAUGAGGAUCACCCAUGUGCUGGUUAUGCAGGUAGGUCGCCGACGCGUGG [Ismatiza]	17	40.2	24.6	27.2	27.1
ACAUGAGGAUCACCCAUGUAUGAUGUUCCUCGAGGACCGGUACGGCCGCCACUCGAACGAGUGGCACGCGAGUGCGCACUCGCGU [aXa]	22.1	19.6	11.7	14.9	14.2
GAUGAACUAUUCGAUACCAGACUACAUGAGGAUCACCCAUGUGUGUCAAUUUCUCAGUCAGUCCCUUGGCAGCGAAUAGUUUAUC [#26 Exclusion-TheophyllineB]	53	51.7	26.3	–	–
AGCGACAUGCGUGAUACCAGCUACAUGAGGAUCACCCAUGUAAGUAGGAAACUACUGUGUAGCCCUUGGCAGCACAGUGCAUGUC [Exclusion - Theophylline B (Freestyle 23)]	10.3	14	10.8	–	–
GUUACAUGGCAAGCAUGUAUAUGGAUAGAUACCAGUUGAUAUUAAGACCCUUGGCAGCUGAGUACAUGAGGAUCACCCAUGUAAG [Theo A Ex t3]	28.4	46.9	51.9	–	–
AAACGCCACGGAAGGAGCGACAUGAGGAUCACCCAUGUAGACGUGGCGGAUGCACCCUCCUGUCAGGUAGGUCGCCGUGCGCCAA [Engebite]	10.9	15.5	11.2	12.2	11
